Results taken from patent publication US20190100594A1 (INHIBRX, published 2019).
Where two headings read alike, the source gives them in different places.

Tests used:
[1] = target: T1, human GITR-CHO (human, UniProt Q9Y5U5); assay: flow cytometry on human GITR-CHO cells
T1 construct: expressed on the surface of CHO cells, construct not described; also called human GITR expressed on the surface of CHO cells
T1 sequence (looked up): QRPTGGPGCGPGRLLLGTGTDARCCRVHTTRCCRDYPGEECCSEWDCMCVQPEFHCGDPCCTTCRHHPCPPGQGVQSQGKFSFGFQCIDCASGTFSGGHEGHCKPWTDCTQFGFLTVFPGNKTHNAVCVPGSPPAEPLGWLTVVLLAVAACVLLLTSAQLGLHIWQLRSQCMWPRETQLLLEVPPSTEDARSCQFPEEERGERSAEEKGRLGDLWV

[2] = target: T2, cyno GITR-CHO (cynomolgus monkey); assay: flow cytometry on cyno GITR-CHO cells
T2 construct: expressed on the surface of CHO cells, construct not described; also called cynomolgus GITR expressed on the surface of CHO cells

[3] = target: T1, human GITR-CHO; assay: flow cytometry on human GITR-CHO cells; remark: listed apart in the source
[4] = target: T2, cyno GITR-CHO; assay: flow cytometry on cyno GITR-CHO cells; remark: listed apart in the source
[5] = target: T1, human GITR-CHO; assay: flow cytometry on human GITR-CHO cells; remark: listed apart in the source
[6] = target: T3, GITR expressed on CHO cells (Homo sapiens (Human), UniProt Q9Y5U5 26-241); assay: flow cytometry on GITR-expressing CHO cells, MFI-FL4
T3 construct: also called glucocorticoid-induced TNFR-related protein; TNFRSF18
T3 sequence: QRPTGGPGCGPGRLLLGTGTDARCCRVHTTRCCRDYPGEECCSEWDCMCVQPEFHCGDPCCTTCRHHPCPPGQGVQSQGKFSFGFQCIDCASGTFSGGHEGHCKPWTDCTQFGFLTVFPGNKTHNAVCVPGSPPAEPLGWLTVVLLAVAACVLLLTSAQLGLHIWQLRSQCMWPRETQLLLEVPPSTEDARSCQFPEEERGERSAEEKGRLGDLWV

[7] = target: T3, GITR expressed on CHO cells; assay: flow cytometry competition on GITR-expressing CHO cells; blocked ligand recombinant GITRL; readout GITRL bound, MFI-FL1
From the text: Briefly, in these studies, a flow cytometry assay using GITR expressing CHO cells and recombinant GITRL was used to implement to assess blocking capacity. The GITR antibody, TRX-518, was used as a control for these studies.

B1: hzC06v3.3 (VHH)
VHH: EVQLLESGGGEVQPGGSLRLSCAASGSVFSIDAMGWYRQAPGKQRELVAVLSGISSAKYAESVKGRFTISRDSAKNAVYLQMDGLKPEDTAVYYCYADVSTGWGRDAHGYWGQGTLVTV
EC50 (read off the curve) [1]: ~4 nM | EC50 (read off the curve) [2]: ~5 nM

B2: hzC06v3.4 (VHH)
VHH: EVQLLESGGGEVQPGGSLRLSCAASGSVFSIDAMGWYRQAPGKQRELVAVLSGISSAKYAESVKGRFTISRDNAKNTVYLQMSSLRAEDTAVYYCYADVSTGWGRDAHGYWGQGTLVTV
EC50 (read off the curve) [1]: ~4 nM | EC50 (read off the curve) [2]: ~5 nM

B3: hzC06v3.6 (VHH)
VHH: EVQLLESGGGEVQPGGSLRLSCAASGSVFSIDAMGWYRQAPGKQRELVAVLSGISSAKYAESVKGRFTISRASAPNTVYLQMSSLRAEDTAVYYCYADVSTGWGRDAHGYWGQGTLVTV
EC50 (read off the curve) [1]: ~4 nM | EC50 (read off the curve) [2]: ~4 nM

B4: hzCC04v1 (VHH)
VHH: EVQLLESGGGEVQPGGSLRLSCAASGFTFSTHGMDWFRQAPGKDLEWVSAINNGGSWTSYASSVKGRFTISRDNAKNTLYLQMSSLRAEDTAVYWCQNRVTRGQGTLVTV
notes: sheet prints hzCC04v1; also called hzC04v1
binding result [3]: binds

B5: hzCC04v1.2 (VHH)
VHH: EVQLLESGGGEVQPGGSLRLSCAASGFTFSTHGMDWFRQAPGKDLEWVSAINNGGSWTSYASSVKGRFTISRDNAKNTLYLQMSSLRAEDTAVYYCQNRVTRGQGTLVTV
notes: sheet prints hzCC04v1.2; also called hzC04v1.2
binding result [3]: binds

B6: hzCC04v5.1 (VHH)
VHH: EVQLLESGGGEVQPGGSLRLSCAASGFTFSTHGMDWFRQAPGKDLEWVSAIQSGGSWTSYASSVKGRFTISRDNAKNTLYLEMNNLKPEDTAVYWCQNRVTRGQGTLVTV
notes: sheet prints hzCC04, text hzC04; also called hzC04v5.1
EC50 (read off the curve) [4]: ~2 nM | EC50 (read off the curve) [5]: ~4 nM

B7: hzCC04v5.2 (VHH)
VHH: EVQLLESGGGEVQPGGSLRLSCAASGFTFSTHGMDWFRQAPGKDLEWVSAIQSGGSWTSYASSVKGRFTISRDNAKNTLYLQMNNLRAEDTAVYWCQNRVTRGQGTLVTV
notes: sheet prints hzCC04, text hzC04; also called hzC04v5.2
EC50 (read off the curve) [4]: ~1 nM | EC50 (read off the curve) [5]: ~4 nM

B8: hzCC04v5.3 (VHH)
VHH: EVQLLESGGGEVQPGGSLRLSCAASGFTFSTHGMDWFRQAPGKDLEWVSAIQSGGSWTSYASSVKGRFTISRDNAKNTLYLEMSSLRAEDTAVYWCQNRVTRGQGTLVTV
notes: sheet prints hzCC04, text hzC04; also called hzC04v5.3
EC50 (read off the curve) [4]: ~2 nM | EC50 (read off the curve) [5]: ~5 nM

B9: hzCC04v5.4 (VHH)
VHH: EVQLLESGGGEVQPGGSLRLSCAASGFTFSTHGMDWFRQAPGKDLEWVSAIQSGGSWTSYASSVKGRFTISRDNAKNTLYLQMSSLRPEDTAVYWCQNRVTRGQGTLVTV
notes: sheet prints hzCC04, text hzC04; also called hzC04v5.4
EC50 (read off the curve) [4]: ~1 nM | EC50 (read off the curve) [5]: ~4 nM

B10: F05 (VHH, not shown: a dimerising Fc or GST; small tags and cut ends)
VHH: QVQLVQSGGGLVQAGGSLRLSCTASGSIFSINHMAWYRQAPGKQREMVAHITGGASTKYADSVKGRFTISRDSALNTVSLRMNSLKPEDTAVYYCNAEVNEGWNADYYDVWGQGTQVTVSS
EC50 (read off the curve) [6]: ~4 nM | IC50 (read off the curve) [7]: ~4 nM

B11: C06 (VHH, not shown: a dimerising Fc or GST; small tags and cut ends)
VHH: QVQLQESGGGLVQAGGSLRLSCAASGSVFSIDAMGWYRLAPGQQRELVAVLNGISSAKYADSVKGRFTISGDSAKNAVYLQMDGLKPEDTAVYYCYADVSTGWGRDAHGYWGQGTQVTVSS
EC50 (read off the curve) [6]: ~3 nM | IC50 (read off the curve) [7]: ~2 nM

B12: 2A1 (VHH, not shown: a dimerising Fc or GST; small tags and cut ends)
VHH: EVQLVQSGGGLVQPGGSLRLSCAASGNIFSIDAMGWYRQAPGRQRELVAQIPGGPTDSVKGRFTVSGNSAKNTGYLQMNTLKPEDTAVYYCNIVASTSWGSPSKVYWGQGTQATVSS
EC50 (read off the curve) [6]: ~10 nM | IC50 (read off the curve) [7]: ~10 nM
